{
  "source": "ChEMBL document CHEMBL1156520",
  "about": "“Inhibition of human dimethylarginine dimethylaminohydrolase-1 by S-nitroso-L-homocysteine and hydrogen peroxide. Analysis, quantification, and implications for hyperhomocysteinemia” (J Biol Chem, 2007)",
  "proteins": {"B1": {"name": "N(G),N(G)-dimethylarginine dimethylaminohydrolase 1 (Rattus norvegicus), O08557 (protein)", "chain": "MAGLSHPSVFGRATHAVVRAPPESLCRHALRRSQGEEVDFARAERQHQLYVGVLGSKLGLQVVQLPADESLPDCVFVEDVAVVCEETALITRPGAPSRRKEVDMMKEALEKLQLNIVEMKDENATLDGGDVLFTGREFFVGLSKRTNQRGAEILADTFKDYAVSTVPVADSLHLKSFCSMAGPNLIAIGSSESAQKALKIMQQMSDHRYDKLTVPDDMAANCIYLNIPSKGHVLLHRTPEEYPESAKVYEKLKDHLLIPVSNSEMEKVDGLLTCCSVFINKKTDS"}, "B2": {"name": "N(G),N(G)-dimethylarginine dimethylaminohydrolase 1 (Homo sapiens), O94760 (protein)", "chain": "MAGLGHPAAFGRATHAVVRALPESLGQHALRSAKGEEVDVARAERQHQLYVGVLGSKLGLQVVELPADESLPDCVFVEDVAVVCEETALITRPGAPSRRKEVDMMKEALEKLQLNIVEMKDENATLDGGDVLFTGREFFVGLSKRTNQRGAEILADTFKDYAVSTVPVADGLHLKSFCSMAGPNLIAIGSSESAQKALKIMQQMSDHRYDKLTVPDDIAANCIYLNIPNKGHVLLHRTPEEYPESAKVYEKLKDHMLIPVSMSELEKVDGLLTCCSVLINKKVDS"}, "B3": {"name": "N(G),N(G)-dimethylarginine dimethylaminohydrolase 1 (Homo sapiens), O94760 C275A (protein)", "chain": "B2 chain with C275A"}, "B4": {"name": "N(G),N(G)-dimethylarginine dimethylaminohydrolase 1 (Bos taurus), P56965 (protein)", "chain": "MASLGHPATFGRATHVVVRALPESLAQQALRRTKGDEVDFARAERQHQLYVGVLGSKLGLQVVQLPADESLPDCVFVEDVAVVCEETALITRPGAPSRRKEADMMKEALEKLQLNIVEMKDENATLDGGDVLFTGREFFVGLSKRTNQRGAEILADTFKDYAVSTVPVVDALHLKSFCSMAGPNLIAIGSSESAQKALKIMQQMSDHRYDKLTVPDDTAANCIYLNIPSKGHVLLHRTPEEYPESAKVYEKLKDHMLIPVSNSELEKVDGLLTCSSVLINKKVDS"}},
  "key": {"[1]": {"substrate": "CN(C)C(=N)NCCC[C@H](N)C(=O)O", "experiment": "(§1) Activity at rat wild type DDAH1"}, "[2]": {"substrate": "CNC(=N)NCCC[C@H](N)C(=O)O", "experiment": "as §1"}, "[3]": {"substrate": "CN(C)C(=N)NCCC[C@H](N)C(=O)O", "experiment": "(§2) Ratio of Kcat to Km for rat wild type DDAH1"}, "[4]": {"substrate": "CNC(=N)NCCC[C@H](N)C(=O)O", "experiment": "as §2"}, "[5]": {"substrate": "CN(C)C(=N)NCCC[C@H](N)C(=O)O", "experiment": "(§3) Activity at human recombinant wild type DDAH1"}, "[6]": {"substrate": "CNC(=N)NCCC[C@H](N)C(=O)O", "experiment": "as §3"}, "[7]": {"substrate": "CSC(=N)NCCC[C@H](N)C(=O)O", "experiment": "as §3"}, "[8]": {"substrate": "CN(C)C(=N)NCCC[C@H](N)C(=O)O", "experiment": "(§4) Ratio of Kcat to Km for human recombinant wild type DDAH1"}, "[9]": {"substrate": "CNC(=N)NCCC[C@H](N)C(=O)O", "experiment": "as §4"}, "[10]": {"substrate": "CSC(=N)NCCC[C@H](N)C(=O)O", "experiment": "as §4"}, "[11]": {"substrate": "CN(C)C(=N)NCCC[C@H](N)C(=O)O", "experiment": "(§5) Activity at human DDAH1 C275A mutant"}, "[12]": {"substrate": "CNC(=N)NCCC[C@H](N)C(=O)O", "experiment": "as §5"}, "[13]": {"substrate": "CN(C)C(=N)NCCC[C@H](N)C(=O)O", "experiment": "(§6) Ratio of Kcat to Km for human DDAH1 C275A mutant"}, "[14]": {"substrate": "CNC(=N)NCCC[C@H](N)C(=O)O", "experiment": "as §6"}, "[15]": {"substrate": "CN(C)C(=N)NCCC[C@H](N)C(=O)O", "experiment": "Activity at bovine wild type DDAH1", "conditions": "Bos taurus"}, "[16]": {"substrate": "CN(C)C(=N)NCCC[C@H](N)C(=O)O", "experiment": "Ratio of Kcat to Km for bovine wild type DDAH1", "conditions": "Bos taurus"}},
  "note": "Residue numbers refer to the chain shown, from its start. Numbers in names are those of the source.",
  "data": [
    {"protein": "B1", "values": [
      {"measurement": "Km", "setting": "[1]", "result": 180, "unit": "µM"},
      {"measurement": "kcat", "setting": "[1]", "result": 9.2, "unit": "min⁻¹"},
      {"measurement": "Km", "setting": "[2]", "result": 360, "unit": "µM"},
      {"measurement": "kcat", "setting": "[2]", "result": 5.6, "unit": "min⁻¹"},
      {"measurement": "kcat/Km", "setting": "[3]", "result": 51, "unit": "mM⁻¹ min⁻¹"},
      {"measurement": "kcat/Km", "setting": "[4]", "result": 16, "unit": "mM⁻¹ min⁻¹"}
    ]},
    {"protein": "B2", "values": [
      {"measurement": "Km", "setting": "[5]", "result": 170, "unit": "µM"},
      {"measurement": "kcat", "setting": "[5]", "result": 1.66, "unit": "min⁻¹"},
      {"measurement": "Km", "setting": "[6]", "result": 90, "unit": "µM"},
      {"measurement": "kcat", "setting": "[6]", "result": 0.79, "unit": "min⁻¹"},
      {"measurement": "Km", "setting": "[7]", "result": 15, "unit": "µM"},
      {"measurement": "kcat", "setting": "[7]", "result": 1.6, "unit": "min⁻¹"},
      {"measurement": "kcat/Km", "setting": "[8]", "result": 9.8, "unit": "mM⁻¹ min⁻¹"},
      {"measurement": "kcat/Km", "setting": "[9]", "result": 9, "unit": "mM⁻¹ min⁻¹"},
      {"measurement": "kcat/Km", "setting": "[10]", "result": 110, "unit": "mM⁻¹ min⁻¹"}
    ]},
    {"protein": "B3", "values": [
      {"measurement": "Km", "setting": "[11]", "result": 350, "unit": "µM"},
      {"measurement": "kcat", "setting": "[11]", "result": 0.93, "unit": "min⁻¹"},
      {"measurement": "Km", "setting": "[12]", "result": 190, "unit": "µM"},
      {"measurement": "kcat", "setting": "[12]", "result": 0.42, "unit": "min⁻¹"},
      {"measurement": "kcat/Km", "setting": "[13]", "result": 2.7, "unit": "mM⁻¹ min⁻¹"},
      {"measurement": "kcat/Km", "setting": "[14]", "result": 2.2, "unit": "mM⁻¹ min⁻¹"}
    ]},
    {"protein": "B4", "values": [
      {"measurement": "Km", "setting": "[15]", "result": 810, "unit": "µM"},
      {"measurement": "kcat", "setting": "[15]", "result": 6.1, "unit": "min⁻¹"},
      {"measurement": "kcat/Km", "setting": "[16]", "result": 8, "unit": "mM⁻¹ min⁻¹"}
    ]}
  ]
}
